# Experimental data from publication PMC5779224, “Autoinhibition of ankyrin-B/G membrane target bindings by intrinsically disordered segments from the tail regions” (eLife, 2017).
# Numbering of substitutions follows the chain as printed.
# B1: AnkB_AI-c (aa 828–852) (domain or fragment, human, UniProt Q01484-2 828-852, looked up)
# chain: TEKHKLNVPETMTEVLDVSDEEGDD
# notes: numbers count on: human 220 kDa AnkB NM_020977.3; source: E. coli BL21 (DE3), purified (Ni2+-NTA, size exclusion)
# How the values were obtained:
# AnkB_MBD Asn595Ala = target: T1, AnkB_MBD Asn595Ala (human, UniProt Q01484-2 28-827, Asn595Ala); assay: ITC; VP-ITC MicroCal, 25 °C; proteins in 50 mM Tris-HCl pH 7.8, 1 mM DTT, 1 mM EDTA with 100 mM or 500 mM NaCl as required; who was titrated is not told; conditions: both partners purified
# T1 construct: ankyrin-B (AnkB), human 220 kDa isoform, MBD 28-827 with N595A in a finger loop; numbers count on: human 220 kDa AnkB NM_020977.3; source: E. coli BL21 (DE3), purified (Ni2+-NTA, size exclusion)
# T1 sequence (looked up): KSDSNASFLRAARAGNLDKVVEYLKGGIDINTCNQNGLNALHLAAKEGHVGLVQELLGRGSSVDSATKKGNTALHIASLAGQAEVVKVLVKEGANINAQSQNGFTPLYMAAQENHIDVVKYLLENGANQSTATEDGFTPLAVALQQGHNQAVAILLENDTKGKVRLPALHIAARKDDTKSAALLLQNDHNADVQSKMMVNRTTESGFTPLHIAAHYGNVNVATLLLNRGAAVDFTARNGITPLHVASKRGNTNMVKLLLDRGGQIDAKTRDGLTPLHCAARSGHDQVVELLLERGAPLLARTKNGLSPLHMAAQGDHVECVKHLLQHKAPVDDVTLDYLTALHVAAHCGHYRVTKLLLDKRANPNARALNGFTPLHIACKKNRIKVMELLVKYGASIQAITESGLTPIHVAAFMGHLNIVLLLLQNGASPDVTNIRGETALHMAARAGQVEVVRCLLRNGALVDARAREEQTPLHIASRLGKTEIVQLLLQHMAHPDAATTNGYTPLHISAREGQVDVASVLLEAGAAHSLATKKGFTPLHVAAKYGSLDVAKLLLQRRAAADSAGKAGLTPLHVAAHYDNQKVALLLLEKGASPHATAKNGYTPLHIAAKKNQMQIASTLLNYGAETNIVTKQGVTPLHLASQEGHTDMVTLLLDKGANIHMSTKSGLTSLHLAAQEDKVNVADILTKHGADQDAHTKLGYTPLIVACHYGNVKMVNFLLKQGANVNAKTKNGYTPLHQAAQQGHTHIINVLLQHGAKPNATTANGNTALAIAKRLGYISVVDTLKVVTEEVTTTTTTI
# [1] = target: T2, AnkB_MBD (AnkB ANK repeats only, aa 28–827) (human, UniProt Q01484-2 28-827); assay: as above; conditions: both partners purified
# T2 construct: ankyrin-B (AnkB), human 220 kDa isoform, residues 28-827: the 24 ANK repeats (MBD), no linker; numbers count on: human 220 kDa AnkB NM_020977.3; Poor quality in 100 mM NaCl buffer; also called AnkB 28–827; source: E. coli BL21 (DE3), purified (Ni2+-NTA, size exclusion)
# T2 sequence (looked up): T1 sequence (looked up) with A568N
binder,measurement,setting,value
B1,binding result,AnkB_MBD Asn595Ala,binds
same,binding result,[1],binds
